According to article PMC4066585 (Journal of immunology (Baltimore, Md. : 1950), 2014):

Assays:
C3b = C3b (human, UniProt P01024); assay: SPR
proenzyme C3bB = proenzyme C3bB (Homo sapiens, UniProt P01024;P00751); assay: SPR
proenzyme C3bB, sequence (P00751 whole entry, looked up, chain 1 of 2): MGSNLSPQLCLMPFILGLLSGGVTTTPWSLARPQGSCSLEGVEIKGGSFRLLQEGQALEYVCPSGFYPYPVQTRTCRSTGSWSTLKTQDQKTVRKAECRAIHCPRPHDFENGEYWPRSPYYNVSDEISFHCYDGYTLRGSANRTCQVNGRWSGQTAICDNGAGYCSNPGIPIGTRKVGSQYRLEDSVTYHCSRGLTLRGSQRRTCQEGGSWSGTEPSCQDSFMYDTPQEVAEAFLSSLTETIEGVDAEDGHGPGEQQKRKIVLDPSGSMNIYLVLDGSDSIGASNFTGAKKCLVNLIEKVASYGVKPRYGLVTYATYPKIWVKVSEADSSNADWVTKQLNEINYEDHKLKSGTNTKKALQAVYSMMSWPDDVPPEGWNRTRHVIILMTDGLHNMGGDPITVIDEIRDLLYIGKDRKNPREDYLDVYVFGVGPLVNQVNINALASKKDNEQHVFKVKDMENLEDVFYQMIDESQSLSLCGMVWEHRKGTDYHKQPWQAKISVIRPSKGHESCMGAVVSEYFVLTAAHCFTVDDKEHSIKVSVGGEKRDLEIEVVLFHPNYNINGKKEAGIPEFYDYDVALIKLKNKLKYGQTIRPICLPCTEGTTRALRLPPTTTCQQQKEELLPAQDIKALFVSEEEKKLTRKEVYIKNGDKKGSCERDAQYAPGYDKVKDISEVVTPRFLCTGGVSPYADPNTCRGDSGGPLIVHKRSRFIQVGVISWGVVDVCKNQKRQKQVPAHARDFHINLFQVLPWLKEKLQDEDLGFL
proenzyme C3bB, sequence (P01024 whole entry, looked up, chain 2 of 2): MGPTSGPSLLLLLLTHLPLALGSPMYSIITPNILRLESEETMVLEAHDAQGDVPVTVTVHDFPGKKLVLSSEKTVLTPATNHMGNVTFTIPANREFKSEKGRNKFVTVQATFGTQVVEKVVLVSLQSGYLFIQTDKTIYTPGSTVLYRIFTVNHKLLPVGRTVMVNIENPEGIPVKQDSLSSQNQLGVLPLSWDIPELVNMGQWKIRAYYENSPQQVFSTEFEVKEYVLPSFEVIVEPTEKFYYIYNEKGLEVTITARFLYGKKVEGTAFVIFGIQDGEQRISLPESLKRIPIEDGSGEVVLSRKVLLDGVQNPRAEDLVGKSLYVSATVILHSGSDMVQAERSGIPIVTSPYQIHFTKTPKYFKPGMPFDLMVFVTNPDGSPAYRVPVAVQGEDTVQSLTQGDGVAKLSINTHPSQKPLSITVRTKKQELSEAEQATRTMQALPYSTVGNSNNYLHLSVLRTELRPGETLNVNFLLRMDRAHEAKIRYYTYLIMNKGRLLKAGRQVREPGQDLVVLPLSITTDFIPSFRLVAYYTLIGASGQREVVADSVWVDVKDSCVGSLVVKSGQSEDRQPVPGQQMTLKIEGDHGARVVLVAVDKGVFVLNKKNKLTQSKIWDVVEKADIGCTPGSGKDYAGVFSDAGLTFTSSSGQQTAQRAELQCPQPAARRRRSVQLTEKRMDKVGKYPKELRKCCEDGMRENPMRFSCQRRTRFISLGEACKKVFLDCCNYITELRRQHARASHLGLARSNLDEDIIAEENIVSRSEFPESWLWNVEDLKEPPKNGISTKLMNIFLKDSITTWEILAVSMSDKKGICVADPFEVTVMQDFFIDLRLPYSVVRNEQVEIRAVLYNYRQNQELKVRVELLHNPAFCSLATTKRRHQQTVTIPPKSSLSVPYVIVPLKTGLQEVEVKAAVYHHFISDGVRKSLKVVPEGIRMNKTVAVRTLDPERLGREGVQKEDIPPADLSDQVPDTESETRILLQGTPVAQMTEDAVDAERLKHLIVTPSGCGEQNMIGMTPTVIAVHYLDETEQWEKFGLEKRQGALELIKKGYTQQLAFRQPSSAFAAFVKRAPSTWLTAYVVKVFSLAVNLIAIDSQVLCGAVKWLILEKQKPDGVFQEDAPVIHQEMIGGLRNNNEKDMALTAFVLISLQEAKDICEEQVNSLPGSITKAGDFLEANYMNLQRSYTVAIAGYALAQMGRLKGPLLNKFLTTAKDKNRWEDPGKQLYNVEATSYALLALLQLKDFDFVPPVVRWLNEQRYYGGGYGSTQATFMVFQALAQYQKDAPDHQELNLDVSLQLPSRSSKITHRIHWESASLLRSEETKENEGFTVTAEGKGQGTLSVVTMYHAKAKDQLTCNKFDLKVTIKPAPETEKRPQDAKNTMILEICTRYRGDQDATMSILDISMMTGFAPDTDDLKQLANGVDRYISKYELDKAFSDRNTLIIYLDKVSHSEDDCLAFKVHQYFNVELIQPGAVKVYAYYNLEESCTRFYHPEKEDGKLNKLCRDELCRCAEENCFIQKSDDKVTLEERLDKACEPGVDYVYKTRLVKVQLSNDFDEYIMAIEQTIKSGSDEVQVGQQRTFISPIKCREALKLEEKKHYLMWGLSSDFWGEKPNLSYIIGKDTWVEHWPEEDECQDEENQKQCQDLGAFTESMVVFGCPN

Kd (C3b) [µM]	binding result (proenzyme C3bB)	Binder
0.028	no binding (tested: 20 μg/ml)	mAb H17 (antibody, V domains shown) VH: EVQLQESGPSLVKPSQTLSLTCTVSGDSITSDYWNWIRQAPGKGLESMGYITYSGTTYYNPSLKSRVTISRDTSKNQYYMELSSLRSEDTATYYCARGVDYEPSYYFDYWGQGTLVTVSS VL: DIQMTQSPSSLSASVGDRVTITCSASQGISNYLNWYQQKPGKAPKLLIYYTSSLHSGVPSRFSGSGSGTDYSLTISSLQPEDIATYYCQQYSNLPWTFGQGTKVEIK
	no binding (tested: 20 μg/ml)	mAb 3E7 (antibody, V domains shown) VH: EVQLQESGPSLVKPSQTLSLTCSVTGDSITSDYWNWIRKFPGNKLESMGYITYSGTTYYNPSLKSRISITRDTSKNQYYLQLNSVTSEDTATYYCARGVDYEPSYYFDYWGQGTTLTVSS VL: DIQMTQTTSSLSASLGDRVTISCSASQGISNYLNWYQQKPDGTVKLLIYYTSSLHSGVPSRFSGSGSGTDYSLTISNLEPEDIATYYCQQYSNLPWTFGGGTKLEIK
